Among the data in patent US5908756 are 50% inhibition of NOS activity values, retold here.

For the assay, the target named is neuronal nitric oxide synthase (nNOS) expressed in transfected HEK 293 cells (rat).

thrombin-cleaved PIN-1, sequence (P61273 whole entry): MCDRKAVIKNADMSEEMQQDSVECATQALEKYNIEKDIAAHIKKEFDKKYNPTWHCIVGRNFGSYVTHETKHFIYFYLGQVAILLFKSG

Substance “glutathione-S-transferase (GST)-PIN-1 fusion protein” yielded a 50% inhibition of NOS activity of 1 µM.
The value for thrombin-cleaved PIN-1 was 5000 µM.
